From US20100151486A1, “OSTEOPONTIN FUNCTIONAL EPITOPES, MONOCLONAL ANTIBODIES AGAINST THE EPITOPES AND USES THEREOF” (SHANGHAI NATIONAL ENGINEERING RESEARCH CENTER OF A, priority 2007, published 2010)

System: rabbit cornea
Assay: OPN-induced rabbit corneal neovascularization
Assay type: in vivo
Settings: pellet with 200 ng hOPN and 1 μg antibody
Procedure: The Hydron powder was dissolved in anhydrous ethanol under sterile condition to the final concentration of 12% (w/v), and dissolved with agitation under 37° C. to formulate the 12% Hydron cast solution, which was then stored at room temperature. A quota of sucralfate powder formulated in sterile Milli Q water under sterile conditions as a suspension with the final concentration of 100 μg/μl, which was stored at 4° C., and vortexed to homogeneous intermediately before use. Sustained-release pellets were prepared to each containing 200 ng hOPN and 50 μg sucralfate and, for the antibody groups, 1 μg anti-OPN antibodies, and for the control, the irrelevant antibody. The 12% Flydron east solution and the hOPN-sucralfate-PBS blend were mixed as the ratio of 1:1 (volume ratio), vortexed for 1 min. Then 5 μl mixed Hydron-sucralfate-hOPN solution was added onto a sterilized Parafilm surface, dried for about 30 min on a super-clean bench for a complete polymerization. The polymers were then shaped into uniform circular granules with a 2 mm diameter using an eye tweezers. The granules were stored at −20′C. Animals were grouped in the same way as in Experiment II-3, each group consisting of four eyes.
The rabbit was anesthetized at ear edge vein with 3% sodium pentobarbital (1 ml/kg body weight) and on both corneal surfaces with 1% tetracaine. The thickness of the cornea was measured using an ultrasonic cornea thickness gauge. A 3 mm half-depth incision was made at the center of the cornea using an ophthalmic knife, and an undermining tunnel toward the 12 o'clock or 3 o'clock position on the corneoscleral margin was made using a 2 mm-wide scleral tunnel knife, whereby the tunnel lied within the corneal layer with the top of the tunnel about 1 mm distant from the limbus corneae. The Hydron/sucralfate sustained-release pellet was implanted into the top of tunnel using micro-tweezers. The cuts were treated with chlortetracycline eye ointment after the surgery. From Day 1 after the surgery, the double-blinded observer observed the rabbit conical neovascularization under the slit-lamp each day, until the Day 10, The length (VL) and the vascular clock angle (CN, 30°=1CN) of the longest vessel were measured, and the area of neovascularization was calculated according to the following formula:
Area (mm^2)=0.2×π×VL (mm)×CN (mm)

[1] = relative to irrelevant antibody group, P<0,01

B1: 1A12: murine anti-hOPN mAb; VH SEQ ID NO: 4, VL SEQ ID NO: 6; from hybridoma 1A12 (antibody, V domains shown)
VH: QVQLEQSGPELVKPGASVKMSCKSSGYTFTTYVMHWVKQKPGQGLEWIGYINPYNDGSKYNEKFKGKATLTSDKSSNTAYMELSSLTSEDSAVYYCASHYGGSPAYWGQGTLVTVSA
VL: DILMTQTPLSLPVSLGDQASISCRSSQSLVHSNGNTYLHWYLQKPGQSPKLLIYKVSNRFSGVPDRFSGSGSGTDFTLKISRVEAEDLGVYFCSQSTHVPWTFGGGTKLEIKR
modifications: amino acid sequence of the heavy chain variable region in 1A12; amino acid sequence of the light chain variable region in 1A12
notes: murine anti-hOPN mAb; from hybridoma 1A12
- corneal neovascularization relative to the OPN group: significantly reduced
- area of neovascularization [1]: significantly shrunk
- length of the newly generated blood vessels [1]: significantly reduced
